Experiments:
[1] = system: Pancreatin from porcine pancreas; assay: In vitro digestion of lunasin with pancreatin, with or without protease inhibitors; assay type: in vitro ADME; conditions: inhibitor 18,000 ng, lunasin 600 ng, pancreatin 600 ng, 1 h at 37°C; also after heat denaturation of the inhibitor
Description: Figure 2 Soy-derived BBI and KTI protect synthetic lunasin from in vitro digestion. The upper, lighter bands are Coomassie Blue protein stains and the lower, darker bands are Western blots. (M) Markers, (1) Lunasin (600 ng) + pancreatin (600 ng) incubated for 0 h at 37°C, (2) Lunasin (600 ng) + pancreatin (600 ng) incubated for 1 h at 37°C, (3) Lunasin (600 ng) + BBI (18,000 ng, unboiled) + pancreatin (600 ng) incubated for 1 h at 37°C, (4). Lunasin (600 ng) + KTI (18,000 ng, unboiled) + pancreatin (600 ng) incubated for 1 h at 37°C, (5) Lunasin (600 ng) + BBI (18,000 ng, boiled) + pancreatin (600 ng) incubated for 1 h at 37°C, (6) Lunasin (600 ng)+KTI (18,000 ng, boiled) + pancreatin (600 ng) incubated for 1 h at 37°C, (7) BBI (unboiled), (8) KTI (unboiled).
In vitro digestion of lunasin was carried out following the method published in the United States Pharmacopeia. Synthetic lunasin (American Peptide Company, Inc. Sunnyvale, CA, USA) (5 µg) was incubated with the protease inhibitors BBI or KTI (Sigma, St. Louis, MO, USA) for 30 min at 25°C. Pancreatin from porcine pancreas (Sigma) was added (enzyme∶protein ratio of 1∶10) and solution was incubated at 37°C for 1 h. Tris-tricine sample buffer was added at the end of the reaction and immediately stopped by placing the tubes in a boiling water bath for 5 min. The digests were analyzed by SDS-PAGE and Western-Blot following the protocol previously described.

[2] = system: DMBA-induced NIH3T3 cells; assay: Foci formation assay in DMBA-induced NIH3T3 cells; assay type: cell-based; conditions: 100 nM peptide; 1.5 µg/ml DMBA; 6 weeks; n = 6
Description: The foci formation assay was performed according to Reznikoff et al. NIH3T3 cells were obtained from American Type Culture Collection (ATCC) and cultured in RPMI 1640 medium supplemented with 10% fetal bovine serum (FBS) (Invitrogen, Carlsbad, CA, USA). Cells were plated at a density of 500 cells/well in 12-well plates, incubated overnight at 37°C and treated with lunasin or BBI for 4 hrs. Then, cells were treated with 1.5 µg/ml DMBA for 20 hrs. After washing with PBS, fresh medium was added. Peptides were added and medium was changed every week for 6 weeks. At the end of experiment, cells were washed with 0.9% NaCl, fixed with methanol, stained with Giemsa, and scored for transformed foci. The negative control was a set of cells receiving no DMBA, while the positive control consisted of cells induced by DMBA but without treatment.

[3] = system: MDA-MB-231 tumor xenografts; assay: Breast cancer prevention in MDA-MB-231 xenograft mouse model; assay type: in vivo, athymic NCr-nu/nu mice
Description: Human MDA-MB-231 breast cancer cells were obtained from ATCC and grown in Leibovitz's L-15 Medium supplemented with 10% FBS, 100 unit/ml penicillin, and 100 µg/ml streptomycin (Invitrogen), in a humidified atmosphere at 37°C.
Mice protocol was approved by ACUC (University of California, Berkeley, CA, USA). Thirty-two six weeks-old athymic NCr-nu/nu mice (National Cancer Institute, Frederick, MD, USA) were acclimatized for 1 week and randomly divided into four groups (n = 8): control group (receiving PBS), BBI-group (receiving BBI at 20 mg/kg body weight), and two lunasin-groups (receiving synthetic lunasin [Chengdu KaiJie Bio-Pharmaceutical Co., Chengdu, P.R. China] at 20 mg/kg body weight and 4 mg/kg body weight). After two months of i.p. treatment three times a week, mice were injected subcutaneously in the right flank with 1×10^7 MDA-MB-231 cells suspended in 0.1 ml of Matrigel Basement Membrane Matrix (Becton Dickinson, Bedford, MA, USA). Tumor growth was monitored by palpation, and the onset when tumors were detectable was noted. Tumor size was measured with calipers, and tumor volume was calculated assuming the shape as ellipsoid. Tumor incidence in percentage was calculated as the number of tumor-bearing mice divided by the total number of mice in each group, whereas tumor generation was calculated as the total number of tumors divided by total number of mice in each group. The volume of the tumor was determined using the following formula: tumor volume = length × width^2 ×0.523 [41].
At the end of the experiment, animals were sacrificed, and tumors were dissected and weighed. Individual tumors were split for fixation in the Shando Glyo-Fixx™ (Thermo Scientific, Pittsburgh, PA, USA) for histological examination. The paraffin-embedded sections were stained with hematoxylin and eosin (H&E).

[4] = system: Ki-67 expression in MDA-MB-231 tumors; assay: Immunohistochemical staining of xenograft tumor sections for Ki-67 labeling index; assay type: in vivo, athymic NCr-nu/nu mice; conditions: 20 mg/kg body weight i.p.; tumors collected 7 weeks after cells injection
Description: Sections were evaluated for tumor cell cytology, growth pattern, necrosis and apoptosis. The 5 µm sections were deparaffinized and rehydrated and antigens were retrieved using citrate buffer (pH 6.0) before endogenous peroxidase activity was blocked. Proliferation was shown using an antibody against Ki-67 (MIB-1; DakoCytomation, Glostrup, Denmark, dilution 1∶75). Antigen expression was expressed using streptavidin conjugated to horseradish peroxidase and visualized by diaminobenzidine chromogen reagent (DakoCytomation). All immunohistochemistry slides were examined by light microscopy (Axiophot 381, Zeiss, Germany). Ki-67 labeling index was calculated as percentage of positive cells over total number of cells counted in microscope at 400× magnification.

MDA-MB-231 tumors = assay: In situ TUNEL assay for apoptosis in xenograft tumor sections; assay type: in vivo, athymic NCr-nu/nu mice; conditions: lunasin 20 and 4 mg/kg (P = 0.0088, 0.0141 vs control), BBI 20 mg/kg i.p.
Description: In situ terminal deoxynucleotidyl transferase-mediated dUTP nick end labeling (TUNEL) assay was performed using ApopTag Detection Kit (Millipore, USA & Canada) and ran based on the manufacturer's protocol. Briefly, deparaffinized and rehydrated sections were pretreated with 20 µg/mL proteinase K for 15 min and incubated with terminal transferase and digoxigenin dUTP at 37°C for 1 h. After washing, sections were incubated with antidigoxigenin rhodamine (Millipore) and DAPI (Invitrogen), and slides were visualized by fluorescent microscopy (Axiophot 381). The apoptotic cells were calculated as percentage of positive cells over total number of cells counted in microscope at 400× magnification.

Row | Molecule | protection of lunasin from in vitro digestion with pancreatin [1] | reduction of foci formation [2] [%] | tumor incidence (mice showing tumors) ([3]; 20 mg/kg body weight i.p. three times a week, seven weeks post-cells injection, n = 8) [%] | tumor incidence lower compared with the control ([3]; 20 mg/kg body weight i.p., seven weeks post-cells injection) | tumor generation ([3]; 20 mg/kg body weight i.p., versus vehicle-treated group) | body weight ([3]; i.p. three times a week, BBI 20 mg/kg, lunasin 20 and 4 mg/kg body weight, compared among the four groups, n = 8) | reduction of Ki-67 expression compared with the control group [4] | TUNEL-positive apoptotic cells in tumors (MDA-MB-231 tumors)
1 | KTI: soy Kunitz Trypsin Inhibitor, a protease inhibitor contained in soybean (protein, UniProt P01070 25-205, looked up) Trypsin inhibitor A: DFVLDNEGNPLENGGTYYILSDITAFGGIRAAPTGNERCPLTVVQSRNELDKGIGTIISSPYRIRFIAEGHPLSLKFDSFAVIMLCVGIPTEWSVVEDLPEGPAVKIGENKDAMDGWFRLERVSDDEFNNYKLVFCPQQAEDDKCGDIGISIDHDDGTRRLVVSKNKPLVVQFQKLDKESL | protect lunasin from digestion |  |  |  |  |  |  | 
2 | BBI: polypeptide of 71 amino acids with the ability to inhibit the serine proteases trypsin and chymotrypsin (protein, UniProt P01055 40-110, looked up) Bowman-Birk type proteinase …: DDESSKPCCDQCACTKSNPPQCRCSDMRLNSCHSACKSCICALSYPAQCFCVDITDFCYEPCKPSEDDKEN | protect lunasin from digestion | 60 | 88 | no effect | ineffective | No significant differences | no significant difference | Few TUNEL-positive cells
